From PMC8323898, “Examination of the roles of a conserved motif in the PriA helicase in structure-specific DNA unwinding and processivity”

Key:
PriA triple variant [1] = target: T1, PriA triple variant (Escherichia coli, UniProt P17888 1-732, W186A;R187A;Y190A); assay: EMSA; same as wild type; 5 mM EDTA; EMSA: 0.1-10 nM PriA, 1 nM fork, 50 mM Tris-HCl pH 8.0, 0.1 mg/mL BSA, 2 mM DTT, 5 mM EDTA, 6% glycerol, 30 min on ice, 4% PAGE; details: protein: recombinant; tags: His-tag; label: radiolabel; fork 1:2, 60 bp parental duplex, two 38-nt ssDNA arms
PriA Arg187Ala [2] = target: T2, PriA Arg187Ala (Escherichia coli, UniProt P17888 1-732, R187A); assay: as above; details: protein: recombinant; tags: His-tag; label: radiolabel; fork 1:2, 60 bp parental duplex, two 38-nt ssDNA arms
PriA Tyr190Ala [3] = target: T3, PriA Tyr190Ala (Escherichia coli, UniProt P17888 1-732, Y190A); assay: as above; details: protein: recombinant; tags: His-tag; label: radiolabel; fork 1:2, 60 bp parental duplex, two 38-nt ssDNA arms
PriA Trp186Ala [4] = target: T4, PriA Trp186Ala (Escherichia coli, UniProt P17888 1-732, W186A); assay: as above; details: protein: recombinant; tags: His-tag; label: radiolabel; fork 1:2, 60 bp parental duplex, two 38-nt ssDNA arms
PriA wild-type [5] = target: T5, PriA wild-type (Escherichia coli, UniProt P17888 1-732); assay: EMSA; three shifted bands; 5 mM EDTA; EMSA: 0.1-10 nM PriA, 1 nM fork, 50 mM Tris-HCl pH 8.0, 0.1 mg/mL BSA, 2 mM DTT, 5 mM EDTA, 6% glycerol, 30 min on ice, 4% PAGE; details: protein: recombinant; tags: N-terminal His6; label: radiolabel; fork 1:2, 60 bp parental duplex, two 38-nt ssDNA arms
PriA triple variant [6] = target: T1, PriA triple variant; assay: EMSA; similar to wild type; 5 mM EDTA; EMSA: 0.1-10 nM PriA, 1 nM fork, 50 mM Tris-HCl pH 8.0, 0.1 mg/mL BSA, 2 mM DTT, 5 mM EDTA, 6% glycerol, 30 min on ice, 4% PAGE; details: protein: recombinant; tags: His-tag; label: radiolabel; fork 1:2 (60 bp) 2:3 (33 bp nascent lagging) 1:4 (38 bp nascent leading), 5-nt lagging gap
PriA Arg187Ala [7] = target: T2, PriA Arg187Ala; assay: as above; details: protein: recombinant; tags: His-tag; label: radiolabel; fork 1:2 (60 bp) 2:3 (33 bp nascent lagging) 1:4 (38 bp nascent leading), 5-nt lagging gap
PriA Tyr190Ala [8] = target: T3, PriA Tyr190Ala; assay: as above; details: protein: recombinant; tags: His-tag; label: radiolabel; fork 1:2 (60 bp) 2:3 (33 bp nascent lagging) 1:4 (38 bp nascent leading), 5-nt lagging gap
PriA Trp186Ala [9] = target: T4, PriA Trp186Ala; assay: as above; details: protein: recombinant; tags: His-tag; label: radiolabel; fork 1:2 (60 bp) 2:3 (33 bp nascent lagging) 1:4 (38 bp nascent leading), 5-nt lagging gap
PriA wild-type [10] = target: T5, PriA wild-type; assay: EMSA; one dominant shifted species; 5 mM EDTA; EMSA: 0.1-10 nM PriA, 1 nM fork, 50 mM Tris-HCl pH 8.0, 0.1 mg/mL BSA, 2 mM DTT, 5 mM EDTA, 6% glycerol, 30 min on ice, 4% PAGE; details: protein: recombinant; tags: N-terminal His6; label: radiolabel; fork 1:2 (60 bp) 2:3 (33 bp nascent lagging) 1:4 (38 bp nascent leading), 5-nt lagging gap

Measured: binding result

B1: two-stranded fork (1b-98/3L-98) (mixed)
DNA 1: GCAAGCCTTCTACAGGTCGACCGTCCATGGCGACTCGAGACCGCAATACGGATAAGGGCTGAGCACGCCGACGAACATTCACCACGCCAGACCACGTA
DNA 2: GACTATCTACGTCCGAGGCTCGCGCCGCAGACTCATTTAGCCCTTATCCGTATTGCGGTCTCGAGTCGCCATGGACGGTCGACCTGTAGAAGGCTTGC
binds: PriA triple variant [1] | PriA Arg187Ala [2] | PriA Tyr190Ala [3] | PriA Trp186Ala [4] | PriA wild-type [5]

B2: four-stranded fork (1b-98/3L-98/b-33/11b-38) (mixed)
DNA 1: B1 DNA 1
DNA 2: B1 DNA 2
DNA 3: AGTCTGCGGCGCGAGCCTCGGACGTAGATAGTC
DNA 4: TACGTGGTCTGGCGTGGTGAATGTTCGTCGGCGTGCTC
binds: PriA triple variant [6] | PriA Arg187Ala [7] | PriA Tyr190Ala [8] | PriA Trp186Ala [9] | PriA wild-type [10]
